Data on four molecules can be found in patent US20220411531A1 (SUMGEN MAB BEIJING BIOTECH, published 2022).

The labels stand for the following.
B1: antibody 6G12M31 (antibody, V domains shown)
VH: QVQLVQSGPGLVKPSQSLSLTCSVTGFSISSGYYWNWIRQFPGQKLEWMGYRSYDGSNNYDPSLKNRISITRDTSKNQFFLKLNSVTSEDTATYYCARGWLLHYTMDYWGQGTTVTVSS
VL: DIVMTQSPSSVSVTLGQSASISCRSSRSLLHSNGFTYLYWYLQKPGQSPQLLIYQMSNLASGVPDRFSGSGSGTDFTLKISRVEAEDVGVYYCGQNLELPLTFGGGTKLEIK
B2: antibody 6G12M21 (antibody, human IgG1, kappa, V domains shown)
VH: B1 VH with D61N
VL: DIVMTQSPSSVSVTLGQSASISCRSSRSLLHSNGFTYLYWYLQKPGQSPQLLIYQMSNLASGVPDRFSGSGSGTDFTLKISRVEAEDVGVYYCGQNLELPLTFGGGTKLEIKR
B3: antibody 6G12M41 (antibody, V domains shown)
VH: B1 VH with D61G
VL: B1 VL
B4: antibody 6G12M11 (antibody, human IgG1, kappa, V domains shown)
VH: B1 VH with S23A, D61N
VL: B2 VL with D1E

Substitutions are numbered along the chain they refer to.

In the first assay the target is T1, TYRO3-Fc (ACRO Biosystems) (UniProt Q06418 41-428, limits assumed).
T1 construct: Bought reagent; also called TRYO3; not shown: Fc part
T1 sequence (looked up): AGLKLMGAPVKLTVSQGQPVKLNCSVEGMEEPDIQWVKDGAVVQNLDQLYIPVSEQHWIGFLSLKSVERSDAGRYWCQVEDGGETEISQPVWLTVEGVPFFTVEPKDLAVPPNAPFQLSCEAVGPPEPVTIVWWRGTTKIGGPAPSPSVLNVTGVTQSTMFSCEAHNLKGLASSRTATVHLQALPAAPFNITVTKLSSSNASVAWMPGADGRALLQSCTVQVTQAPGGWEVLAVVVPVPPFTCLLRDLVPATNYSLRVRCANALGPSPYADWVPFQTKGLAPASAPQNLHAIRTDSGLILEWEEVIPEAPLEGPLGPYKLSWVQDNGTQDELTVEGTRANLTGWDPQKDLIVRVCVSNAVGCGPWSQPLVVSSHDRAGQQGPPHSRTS
As to the kind of experiment: ELISA, TYRO3-Fc coated at 1 µg/ml, anti-human IgG Fab-HRP, OD450. On the procedure:
AXL, TRYO3, and MER are all members of the TYRO3 receptor tyrosine kinase subfamily. To verify the recognition specificity of the antibodies 6G12M11, 6G12M21, 6G12M31 and 6G12M41, the binding ability of these antibodies to other members of the AXL family is tested by the ELISA method.
TYRO3-Fc (ACRO Biosystems), MER-His (ACRO Biosystems), and AXL-His (Sino Biological Inc.) each were coated at 1 μg/ml on an ELISA strip, which was held at 4° C. overnight. After the ELISA strips were washed with PBST, 10% fetal bovine serum was added to the ELISA strip, which was blocked for 1 hour at 37° C. Antibodies […], 6G12M21, 6G12M31 and 6G12M41 were added to react at 37° C. for 1 hour. After the ELISA strips were washed with PBST, horseradish peroxidase-labeled goat anti-human IgG Fab secondary antibodies (Goat Anti-Human IgG (Fab′)₂ (HRP), Abcam) were added to react for 30 minutes at 37° C. The ELISA strips were washed 5 times with PBST, and patted and dried on absorbent paper to remove residual droplets as much as possible. 100 μl of TMB (eBioscience, #85-00-420) was added to each well, and the ELISA strips were held for 1.5 min at room temperature (20±5° C.) in the dark. 100 μl of 2N H₂SO₄ stop solution was added to each well to terminate substrate reaction. The OD value was read at 450 nm by a microplate reader to analyze the binding ability of antibodies to the proteins.
On the technique in general: An ELISA detects its analyte on a solid surface through an enzyme-linked reagent.
B1: the binding result is given as “no binding (tested: about 1 µg/mL)”.
Still for that read-out and setting: as for B2, the entry is “no binding (tested: about 1 µg/mL)”; as for B3, “no binding (tested: about 1 µg/mL)”.

For another assay, the target named is T2, AXL-His (Sino Biological Inc., 6x His labels, molecular weight 47.5 Kda) (UniProt P30530-2 26-440, limits assumed).
T2 construct: Bought reagent; also called target antigen AXL-His; target antigen AXL; not shown: 6x His tag
T2 sequence (looked up): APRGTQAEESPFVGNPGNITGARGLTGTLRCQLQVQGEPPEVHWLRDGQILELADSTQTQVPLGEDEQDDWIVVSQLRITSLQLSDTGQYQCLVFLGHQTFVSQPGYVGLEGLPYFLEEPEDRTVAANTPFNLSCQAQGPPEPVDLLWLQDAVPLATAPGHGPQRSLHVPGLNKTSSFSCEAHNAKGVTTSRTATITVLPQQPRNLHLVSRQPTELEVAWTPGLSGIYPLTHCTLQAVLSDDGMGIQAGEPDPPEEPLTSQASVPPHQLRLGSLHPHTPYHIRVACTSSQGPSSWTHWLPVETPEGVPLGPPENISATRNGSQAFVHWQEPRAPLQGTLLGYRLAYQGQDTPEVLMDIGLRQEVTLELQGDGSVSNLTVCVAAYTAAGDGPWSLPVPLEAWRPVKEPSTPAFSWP
Kind of assay: ELISA, AXL-His coated at 1 ug/ml. On the procedure:
A target antigen AXL-His (Sino Biological Inc.) was coated at 1 μg/ml on an ELISA strip, which was held at 4° C. overnight. After the ELISA strip was washed with PBST, 10% fetal bovine serum was added to the ELISA strip, which was blocked for 1 hour at 37° C. Different concentrations of antibodies 6G12M11, 6G12M21, 6G12M31 and 6G12M41 were added to react at 37° C. for 1 hour. After the ELISA strip was washed with PBST, a horseradish peroxidase-labeled goat anti-mouse secondary antibody (Goat Anti-mouse IgG HRP, Abcam) was added to react for 30 minutes at 37° C. The ELISA strip was washed 5 times with PBST, and patted and dried on absorbent paper to remove residual droplets as much as possible. 100 μl of TMB (eBioscience) was added to each well, and the ELISA strip was held for 1.5 min at room temperature (20±5° C.) in the dark. 100 μl of 2N H₂SO₄ stop solution was added to each well to terminate substrate reaction. The OD value was read at 450 nm by a microplate reader to analyze the binding ability of each antibody to the target antigen AXL. The amino acid sequence of the heavy chain of antibody 6G12M11 is as set forth in SEQ ID NO: 35, and the amino acid sequence of the light chain of the same is as set forth in SEQ ID NO: 36; the amino acid sequence of the heavy chain of antibody 6G12M21 is as set forth in SEQ ID NO: 37, and the amino acid sequence of the light chain of the same is as set forth in SEQ ID NO: 38; the VH of antibody 6G12M31 is as set forth in SEQ ID NO: 42, and the VL of the same is as set forth in SEQ ID NO: 6; and the VH of antibody 6G12M41 is as set forth in SEQ ID NO: 43, and the VL of the same is as set forth in SEQ ID NO: 6.
It can be seen that both antibodies 6G12M11 and 6G12M21 can specifically recognize the target antigen AXL.
With B1, the midpoint of the response, the EC50, lay at 0.0211 µg/mL.
As to B4, the EC50 (commonly the concentration giving half of the maximal effect) is 0.027 µg/mL.
With B2, the EC50 turned out to be 0.0253 µg/mL.
Same read-out and setting: as for B3, the figure is 0.0176 µg/mL.
